We go through 1 molecule from patent US20140010756A1 (KAGOSHIMA UNIVERSITY, published 2014).

The experiment addresses T1, human folate receptor β (FRβ) (human, UniProt P14207 23-230).
T1 construct: Expressed on mouse B300-19 cells from cDNA cloned from human rheumatoid synovial membrane; also called human FRβ
The experiment is described as follows: hybridoma antibodies selected by reactivity with FRβ-expressing cells (human FRβ on mouse B300-19 cells); reactivity analysed by flow cytometry. Background: In flow cytometry, cells or beads pass a laser one at a time.

T1 sequence (P14207 23-230 S117T limits assumed): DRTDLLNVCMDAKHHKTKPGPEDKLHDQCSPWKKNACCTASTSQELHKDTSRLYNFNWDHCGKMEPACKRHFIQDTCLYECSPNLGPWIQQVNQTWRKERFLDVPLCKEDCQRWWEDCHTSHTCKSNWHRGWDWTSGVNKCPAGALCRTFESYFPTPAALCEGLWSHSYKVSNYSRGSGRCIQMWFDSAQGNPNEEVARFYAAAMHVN

B1: anti-human FRβ mouse monoclonal antibody 36b (antibody, mouse IgG2a, V domains shown)
VH: QVQLQQSGAELMKPGASLKISCKATGYTFSSYWIEWVKQRPGHGLQWIGEILPGSGSSNYNEKFKGKATFTADTSSNTAYMQLSSLTSEDSAVYYCARRGSSGSYFAMDYWGQGTSVTVSS
VL: DIQMTQSSSSFSVSLGDRVTITCKASEDIYNRLAWYQQKPGNAPRLLISGATSLETGVPLRFSGSGSGKDYTLSITSLQTEDIATYYCQQYWSTPWTFGGGTKLEIKK
notes: also called Clone 36b
Turning to B1, the binding result is given as “binds”.
